Article PMC3470943, “Identification of BACE2 as an avid ß-amyloid-degrading protease” (Molecular Neurodegeneration, 2012)

B1: BACE1: ß-site APP-cleaving enzyme-1, homolog of BACE2; recombinant enzyme or transfected cDNA (protein, UniProt P56817 46-501, looked up)
Beta-secretase 1: ETDEEPEEPGRRGSFVEMVDNLRGKSGQGYYVEMTVGSPPQTLNILVDTGSSNFAVGAAPHPFLHRYYQRQLSSTYRDLRKGVYVPYTQGKWEGELGTDLVSIPHGPNVTVRANIAAITESDKFFINGSNWEGILGLAYAEIARPDDSLEPFFDSLVKQTHVPNLFSLQLCGAGFPLNQSEVLASVGGSMIIGGIDHSLYTGSLWYTPIRREWYYEVIIVRVEINGQDLKMDCKEYNYDKSIVDSGTTNLRLPKKVFEAAVKSIKAASSTEKFPDGFWLGEQLVCWQAGTTPWNIFPVISLYLMGEVTNQSFRITILPQQYLRPVEDVATSQDDCYKFAISQSSTGTVMGAVIMEGFYVVFDRARKRIGFAVSACHVHDEFRTAAVEGPFVTLDMEDCGYNIPQTDESTLMTIAYVMAAICALFMLPLCLMVCQWRCLRCLRQQHDDFADDISLLK
B2: BACE2: ß-site APP-cleaving enzyme-2, aspartyl protease; recombinant enzyme (R&D Systems) or transfected human cDNA (protein, UniProt Q9Y5Z0 63-518, looked up)
Beta-secretase 2: ALEPALASPAGAANFLAMVDNLQGDSGRGYYLEMLIGTPPQKLQILVDTGSSNFAVAGTPHSYIDTYFDTERSSTYRSKGFDVTVKYTQGSWTGFVGEDLVTIPKGFNTSFLVNIATIFESENFFLPGIKWNGILGLAYATLAKPSSSLETFFDSLVTQANIPNVFSMQMCGAGLPVAGSGTNGGSLVLGGIEPSLYKGDIWYTPIKEEWYYQIEILKLEIGGQSLNLDCREYNADKAIVDSGTTLLRLPQKVFDAVVEAVARASLIPEFSDGFWTGSQLACWTNSETPWSYFPKISIYLRDENSSRSFRITILPQLYIQPMMGAGLNYECYRFGISPSTNALVIGATVMEGFYVIFDRAQKRVGFAASPCAEIAGAAVSEISGPFSTEDVASNCVPAQSLSEPILWIVSYALMSVCGAILLVLIVLLLLPFRCQRRPRDPEVVNDESSLVRHRWK

What was measured:
[1] = test system: Aß (fluorescent substrate FAβB); assay: Fluorescence polarization-based Aß degradation assay; assay type: biochemical; details: 37°C
Experimental: The kinetics of Aβ40 and Aβ42 degradation by BACE2 were determined using freshly prepared, monomeric Aβ peptides separated from aggregated species by size-exclusion chromatography and characterized as described. Aβ peptides were diluted in neutral Dilution Buffer (20 mM Tris, pH 8.0 supplemented with 0.1% BSA) and reactions were initiated by transfer into 20 times more volume of Assay Buffer supplemented with purified recombinant BACE2 (R&D Systems, nominal concentration 1 or 5 nM) or, as a control for non-specific loss of Aβ, the latter buffer lacking BACE2. Where required, reactions were terminated by supplementation with protease inhibitor cocktail and adjustment to neutral pH. For ELISA-based experiments, Aβ42 and Aβ40 were quantified using the sandwich ELISAs described above. […] For determination of the pH dependence of Aβ degradation, experiments were carried same as described above, using Assay Buffer at different pH values (3.0, 3.5, 4.0, 4.5, 5.0, 5.5). The reactions were stopped at 10 min and the remaining 200nM of Aβ was determined using a well-characterized fluorescence polarization-based activity Aß degradation assay, as described. […] The degree of Aβ hydrolysis was immediately determined using a polarization-based Aß degradation assay. […]

[2] = test system: net Aß40 and Aß42 levels of CHO cells expressing APP-AP; assay: Confirmation: co-transfection of BACE2 or BACE1 cDNA with APP-AP, Aß40 and Aß42 ELISA; assay type: cell-based; details: CHO cells co-transfected with APP-AP, 4 replicates, normalized to vector-only controls
Experimental: Figure 1 Overview and outcome of functional screening for novel Aß-lowering proteases. A, Cartoon illustrating the overall design of the screen. Briefly, an arrayed collection of 352 protease-encoding cDNAs was cotransfected into CHO cells together with an APP-AP fusion construct. Following a medium change and overnight incubation, Aß40 levels, AP activity, and cytotoxicity (via MTT assay) were analyized in the resulting conditioned media. B, Results of the screen, expressed as [Aß40]/AP ratios normalized to intraplate controls. Data are mean of 4 replicates. Note that the largest decrease in Aß levels by far was acheived by BACE2. C, Confirmation of the results of the screen. Following scale-up and sequence verification, cDNAs encoding BACE2 and its homolog, BACE1, were cotransfected together with APP-AP into CHO cells. […]
Aβ levels were quantified using a sandwich ELISA system based on antibody pairs 33.1.1/13.1.1 for Aβ40 and 2.1.3/4 G8 for Aβ42 as described previously. Conditioned media were supplemented with Complete^TM Protease Inhibitor Cocktail (Roche) just after collection and analyzed immediately. For experiments quantifying intracellular Aß, cells were plated in 96-well plates (2 x 10^4 cells per well) and transfected with BACE2-encoding cDNA or empty vector, washed, then incubated with 400 nM synthetic Aß for 6 h. […]

[3] = test system: Aß40 levels produced by CHO cells co-transfected with human APP-AP; assay: Functional cDNA screen for Aß-lowering proteases, co-transfection with APP-AP; assay type: cell-based, CHO cells (rodent cell line); details: protease cDNA 100 ng/well co-transfected with APP-AP 60 ng/well; 24 h conditioned medium; normalized to intra-plate controls; quadruplicate
Experimental: A library of 352 full-length, sequence verified, human cDNAs encoding diverse members of all protease classes was purchase from a commercial source (OriGene Technologies, Inc.) in 96-well format (100 ng/well). For negative and positive controls, a subset of blank wells on each plate were supplemented with empty vector or a construct expressing a well-established AßDP, human ECE1b, respectively (100 ng/well). As a source of human Aß and also as a transfection control, each well was cotransfected with a hybrid construct, APP-AP (60 ng/well), comprised of a vector expressing wild-type human APP fused at its N-terminus with alkaline phosphatase (AP). Additional blank wells were left untreated for cell-free background controls. […]
Following heat treatment to inactivate endogenous phosphatases (65°C for 15 min) present in the media, conditioned media (30 μL/well) was added to 96-well plates containing AP substrate, 4-nitrophenylphosphate (170 μL/well, 2 mg/mL), dissolved in AP buffer (1 M diethanolamine, 0.5 mM MgCl2, 10 mM L-homoarginine, pH 9.8). Plates were incubated for 30 min and AP activity was determined from absorbance (OD405) using a SpectraMax® M5^e multilabel plate reader (Molecular Devices).
Aβ levels were quantified using a sandwich ELISA system based on antibody pairs 33.1.1/13.1.1 for Aβ40 and 2.1.3/4 G8 for Aβ42 as described previously. […]

[4] = test system: pre-formed fibrils of Aß42; assay: Thioflavin T fluorescence of pre-formed Aß42 fibrils incubated with BACE2; assay type: biochemical; details: BACE2 10 nM, 37°C, up to 3 d / 5 d (legend Figure 2D), 3 replicates
Experimental: Figure 2 BACE2 degrades Aß in vitro. A, Percent Aß remaining following incubation with different concentrations of recombinant BACE2 for various lengths of time. Data are mean ± SEM of 4 replicates, normalized to protease-free controls. B, Comparison the relative Aß-degrading ability of recombinant BACE2 vs. BACE1. Note that 24 h incubation with BACE1 was required to achieve approximately the same extent of degradation as effected by BACE2 in 10 min. Data are mean ± SEM of 3 replicates, normalized to protease-free controls. C, BACE2 activity is pH dependent. Percent Aß degradation catalyzed by equivalent amounts of BACE2 at different pH values. Data are mean ± SEM of 4 replicates. […] Data are mean ± SEM of 3 replicates.
Individual AßDPs can be categorized in terms of their ability or inability to degrade fibrillar forms of Aß. Many well-established AßDPs, such as IDE and NEP, avidly degrade monomeric Aß but cannot degrade fibrillar forms and are therefore categorized as pure peptidases. Others, such as plasmin, degrade Aß fibrils and thus can also be categorized as fibrilases.

Row | Molecule | efficiency of Aß degradation, fold lower than that of BACE2 ([1]; BACE1 24 h vs BACE2 10 min for a similar extent of degradation, Assay Buffer pH 4.0) | effect of overexpression on net Aß40 and Aß42 levels [2] | decrease in normalized Aß levels ([Aß40]/AP ratio) [3] [%] | pH of maximal Aß40 hydrolysis ([1]; Assay Buffer at pH 3.0, 3.5, 4.0, 4.5, 5.0, 5.5, 200 nM Aβ, stopped at 10 min, 4 replicates) | effect on aggregation of pre-formed Aß42 fibrils [4]
1 | B1 | ~ 150 fold | no effect |  |  | 
2 | B2 |  | decreased the levels of both Aβ40 and Aβ42 | 97 ± 1.2 | 3.5 | No significant reduction in aggregation
